Reference: US10172917B2, “Targeted oesophageal administration of ZN-α2-glycoproteins (ZAG), methods and formulations thereof” (ASTON UNIVERSITY, priority 2012, dated 2019)

Experiments:
ob/ob mice [1] = experiment: Oral ZAG in drinking water to ob/ob mice: body weight, rectal temperature, urinary glucose excretion; assay type: in vivo, mouse
Procedure: Obese (ob/ob) mice (average weight 65 g) were bred in a colony, and were kept in an air conditioned room at 22+2° C. with ad libitum feeding of a rat and mouse breeding diet (Special Diet Services, Witham, UK) and tap water. […] Animals were grouped (n=5) to receive either ZAG/PBS (50 μg day^−1), or PBS in their drinking water, the experiment was repeated three times after a power analysis was performed. […] The ZAG was replaced every 48 h. […] The dose of ZAG was chosen to be the same as that previously administered i.v. (1), so that a direct comparison could be made, between the two routes. Body weight, food and water intake, urinary glucose excretion, and body temperature, determined by the use of a rectal thermometer (RS Components, Northants, UK), were measured daily. A glucose tolerance test was performed on day 3. Animals were fasted for 12 h, followed by oral administration of glucose (1 gkg^−1 in a volume of 100 μl by gavage). Blood samples were removed from the tail vein at 15, 30, 60 and 120 min and used for the measurement of glucose. Urinary glucose was measured by collecting 0.5 ml urine and testing glucose concentration using a Boots glucose monitor. After 8 days of treatment the animals were terminated by cervical dislocation, tissues were removed and rapidly frozen in liquid nitrogen, and maintained at −80° C. Future work would be to repeat this work in diet-induced animals as alternative to a model with gene alteration, although previous studies have shown the ob/ob mouse to be a good indicator of potential human treatments. Animal studies were conducted under Home Office Licence according to the UKCCCR Guidelines for the care and use of laboratory animals.

ob/ob mice [2] = experiment: Oral glucose tolerance test in ob/ob mice after 3 days of oral ZAG; assay type: in vivo, mouse
Procedure: Animals were grouped (n=5) to receive either ZAG/PBS (50 μg day^−1), or PBS in their drinking water, the experiment was repeated three times after a power analysis was performed. […] The ZAG was replaced every 48 h. One group of mice receiving ZAG were also administered propanolol (40 mgkg^−1, p.o.) daily. The dose of ZAG was chosen to be the same as that previously administered i.v. (1), so that a direct comparison could be made, between the two routes. Body weight, food and water intake, urinary glucose excretion, and body temperature, determined by the use of a rectal thermometer (RS Components, Northants, UK), were measured daily. A glucose tolerance test was performed on day 3. Animals were fasted for 12 h, followed by oral administration of glucose (1 gkg^−1 in a volume of 100 μl by gavage). Blood samples were removed from the tail vein at 15, 30, 60 and 120 min and used for the measurement of glucose. Urinary glucose was measured by collecting 0.5 ml urine and testing glucose concentration using a Boots glucose monitor. After 8 days of treatment the animals were terminated by cervical dislocation, tissues were removed and rapidly frozen in liquid nitrogen, and maintained at −80° C. […] Animal studies were conducted under Home Office Licence according to the UKCCCR Guidelines for the care and use of laboratory animals.

murine ZAG = experiment: Western blotting of murine ZAG in serum and WAT of ob/ob mice; assay type: in vivo, mouse; settings: ob/ob mice dosed orally with human ZAG for 8 days, anti-mouse ZAG antibody
Procedure: Tissues were thawed, washed in PBS and lysed in Phosphosafe™ Extraction reagent for 5 min at room temperature, followed by sonication at 4° C. Cytosolic protein (5-20 ug) formed by centrifugation at 18,000 g for 5 min at 4° C., was resolved on 12% SDS PAGE by electrophoresis at 180V for about 1 h. To determine ZAG in serum 30 μl samples containing 20 μg total protein were electrophoresed as above. Protein was transferred to 0.45 μm nitrocellulose membranes, which had been blocked with 5% (w/v) non-fat dried milk (Marvel) in Tris-buffered saline, pH 7.5, at 4° C. overnight. Membranes were washed for 15 min in 0.1% Tween 20 buffered saline prior to adding the primary antibodies. Both primary and secondary antibodies were used at a dilution of 1:1000. Incubation was for 1 h at room temperature, and development was by ECL. Blots were scanned by a densitometer to quantify differences.

β3-AR [3] = molecular target: T1, β3-AR (Homo sapiens, UniProt P13945); settings: high affinity binding site on the β3-AR; previous studies; cited from earlier work
T1 sequence (P13945 whole entry): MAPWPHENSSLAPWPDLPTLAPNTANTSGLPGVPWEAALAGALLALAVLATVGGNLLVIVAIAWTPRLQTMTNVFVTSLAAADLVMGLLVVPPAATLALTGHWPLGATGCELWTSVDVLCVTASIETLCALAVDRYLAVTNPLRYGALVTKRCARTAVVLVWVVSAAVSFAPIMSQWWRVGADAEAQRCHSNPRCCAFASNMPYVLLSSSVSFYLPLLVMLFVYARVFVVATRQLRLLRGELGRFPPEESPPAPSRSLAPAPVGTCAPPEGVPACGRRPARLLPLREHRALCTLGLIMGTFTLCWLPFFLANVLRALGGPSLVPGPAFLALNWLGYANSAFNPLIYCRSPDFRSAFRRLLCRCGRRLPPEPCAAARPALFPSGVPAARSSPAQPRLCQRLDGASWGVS

BAT of ob/ob mice = settings: ob/ob mice after ZAG administration; cited from earlier work
β3-AR [4] = molecular target: T1, β3-AR; experiment: Cyclic AMP production in CHO cells transfected with human β3-AR; assay type: cell-based; set-up: expressed in transfected cells; host or cells: CHOK1 (CHO-K1) cells; settings: 30 min incubation
Procedure: FIG. 3C is a graphical representation of the effect of a tryptic digest of ZAG in comparison with intact ZAG on cyclic AMP production by CHO cells transfected with human β1-AR (▪), β2-AR(□) and β3-AR) ( ? ) after 30 min incubation. ZAG (1 mg) was incubated with trypsin (200 μg) in 1 ml 10 mM Tris.HCl, pH8 for 4 h at 37° C. and proteolysis was terminated by addition of the trypsin inhibitor (200 μg). High molecular weight material was removed by a Sephadex G25 column followed by dialysis using an Amicon filtration cell containing a 10 kDa cut-off membrane filter.
CHOK1 cells transfected with human β1-, β2- and β3-AR were maintained in DMEM supplemented with 2 mM glutamine, hygromycin B (50 μgml^−1), G418 ([…]) and 10% FCS, under an atmosphere of 10% CO2 in air. For cyclic AMP production cells were grown in 24-well plates in 1 ml nutrient medium, and ZAG, after tryptic digestion as described in the legend to FIG. 3C, was incubated for 30 min. The medium was then removed and 0.5 ml of 20 mM HEPES, pH7.5, 5 mM EDTA and 0.1 mM isobutylmethylxanthine was added, followed by heating on a water bath for 5 min, and cooling on ice for 10 min. The concentration of cyclic AMP was determined using a Parameter cyclic AMP assay kit (New England Biolabs, Hitchin, Herts, UK).

[5] = 50 μg day^−1 po in drinking water

B1: zinc-α2-glycoprotein (protein, listed as Homo sapiens)
chain: QENQDGRYSLTYIYTGLSKHVEDVPAFQALGSLNDLQFFRYNSKDRKSQPMGLWRQVEGMEDWKEDSQLQKAREDMETLKDIVEYYNDSNGSHVLQGRFGCEIENNRSSGAFWKYYYDGKDYIEFNKEIPAWVPFDPAAQITKQKWEAEPVYVQRAKAYLEEECPATLRKYLKYSKNILDRQDPPSVVVTSHQAPGEKKKLKCLAYDFYPGKIDVHWTRAGQVQEPELRGDVLHNGNGTYQSWVVVAVPPQDTAPYSCHVQHSSLAQPLVVPWEAS
notes: Recombinant human ZAG, a 41 kDa protein, produced by HEK293F cells transfected with pcDNA3.1 containing human ZAG
increase in rectal temperature (ob/ob mice [1]; [5]): 0.5 °C | reduction in urinary glucose excretion (ob/ob mice [1]; [5]): 40% | loss of body weight / difference in body weight between ZAG and PBS groups (ob/ob mice [1]; 50 μg day^−1 po in drinking water, after 8 days treatment): 5 g | difference in body weight between the ZAG and PBS groups (ob/ob mice [1]; 50 μg per day in drinking water, after 5 days of treatment): 3.5 g | time of treatment after which increase in rectal temperature became significant (ob/ob mice [1]; oral ZAG 50 μg per day): 4 days | time of treatment after which reduction in urinary glucose excretion became significant (ob/ob mice [1]; oral ZAG 50 μg per day): 1 days | insulin response to the glucose challenge (ob/ob mice [2]; after 3 days of oral ZAG): decreased the insulin response | peak blood glucose concentration in glucose tolerance test (ob/ob mice [2]; after 3 days of oral ZAG): reduced peak blood glucose concentration | reduction in the total area under the curve (AUC) during oral glucose tolerance test (ob/ob mice [2]; after 3 days of oral ZAG, glucose 1 gkg^−1 po after 12 h fast): 33% | sensitivity to insulin (ob/ob mice [2]; oral ZAG 50 μg day^−1): increased sensitivity to insulin | elevation of murine ZAG in serum (murine ZAG): two-fold | elevation of murine ZAG in serum (murine ZAG; listed as human ZAG): 2 fold | Bmax (β3-AR [3]): 282±1 fmole mg protein^−1 | Kd (β3-AR [3]): 78 ± 45 nM | increase in oxygen uptake by BAT (BAT of ob/ob mice): three-fold | cyclic AMP production (β3-AR [4]): stimulated
